Assays:
[1] = biological target: endogenous vCD30 protein secreted during ECTV infection (Ectromelia virus (ECTV Naval.Cam)); experiment: non-reducing SDS-PAGE and Western blot
[2] = biological target: His-tagged ECTV vCD30 protein (vCD30His) (Ectromelia virus (ECTV)); experiment: non-reducing SDS-PAGE; purified vCD30His from baculovirus; data not shown

Substance | stoichiometry N [1] | stoichiometry N [2]
endogenous vCD30 protein secreted during ECTV infection (natural protein) | 3 | 
His-tagged ECTV vCD30 protein (vCD30His) (natural protein) |  | 3

Source: paper PMC2664468
